The text below walks through data of paper PMC7961091, “Bacillus subtilis YngB contributes to wall teichoic acid glucosylation and glycolipid formation during anaerobic growth” (The Journal of Biological Chemistry, 2021).

Substrate in series [1]: O=c1ccn([C@@H]2O[C@H](COP(=O)(O)OP(=O)(O)OP(=O)(O)O)[C@@H](O)[C@H]2O)c(=O)[nH]1
In words: purified protein. It is filed as biochemical, Bacillus subtilis. As to conditions: 200 μM Glc-1-P, MgCl2 10 mg/ml (so in the source), 50 mM Tris pH 7.5, 500 mM NaCl, 5% glycerol, RT.

Substrate in series [2]: O=P(O)(O)O[C@H]1O[C@H](CO)[C@@H](O)[C@H](O)[C@H]1O
The experiment in a line: purified protein. Format: biochemical, Bacillus subtilis. The settings on record: 200 μM UTP, MgCl2 10 mg/ml (so in the source), 50 mM Tris pH 7.5, 500 mM NaCl, 5% glycerol, RT.

B1: GtaB (Bacillus subtilis subsp. subtilis str. 168) (protein)
chain: MKKVRKAIIPAAGLGTRFLPATKAMPKEMLPIVDKPTIQYIIEEAVEAGIEDIIIVTGKSKRAIEDHFDYSPELERNLEEKGKTELLEKVKKASNLADIHYIRQKEPKGLGHAVWCARNFIGDEPFAVLLGDDIVQAETPGLRQLMDEYEKTLSSIIGVQQVPEEETHRYGIIDPLTSEGRRYQVKNFVEKPPKGTAPSNLAILGRYVFTPEIFMYLEEQQVGAGGEIQLTDAIQKLNEIQRVFAYDFEGKRYDVGEKLGFITTTLEFAMQDKELRDQLVPFMEGLLNKEEI
notes: full-length, C-terminal His-tag cleaved off with thrombin (pET28b-gtaB-cHis), E. coli BL21(DE3)
Turning to B1, the Michaelis-Menten constant (Km) turned out to be 49.5 ± 10.2 µM in “purified protein [1]” and 45.6 ± 3.24 µM in the series “purified protein [2]”. Further, the figures for the kcat in the series “purified protein [1]” and in the series “purified protein [2]” were 1.04 s⁻¹ and 1.06 s⁻¹, respectively.

B2: YngB (Bacillus subtilis subsp. subtilis str. 168) (protein)
chain: MRKKVRKAVIPAAGLGTRFLPATKAQPKEMLPIVDKPAIQYIVEEAAESGIEDILIITGRNKRSIEDHFDRSAELEFNLREKGKTETLKEMQQIADLANIHYIRQKEPLGLGHAVLCAEHFIGDEPFAVLLGDDIMVSETPALRQLMDVYDVYGTEVVGVQSVLPEDVSKYGIINTSGSQGHVYEVNDLVEKPSPEEAPSEIAVMGRYVLNSSIFSVLKTIGRGAGNEIQLTDALREVCRKEPIHARLLEGNRYDIGDKLGCFKASTEIGLMRPEMRSQLLAYLEDVIKRETKEMLR
notes: full-length, C-terminal His-tag kept (pET28b-yngB-cHis), E. coli BL21(DE3); native (Met) protein in kinetics; dimer in crystal
As for B2, in “purified protein [1]”, the Km turned out to be 62.9 ± 13.8 µM and the kcat came to 0.293 s⁻¹. Further, in “purified protein [2]”, the Km worked out at 42.1 ± 20.2 µM and the kcat was 0.264 s⁻¹.
